Results reported in the supplement of paper PMC9233669.
Variants at the floor of the assay were thinned out.

What was measured:
biotinyl-Trp-oxazolone = assay: self-aminoacylation, catalytic enhancement (BWO) (fold over background); higher = more active; k-Seq, kA / k0A0; sequences stand for … in GGGAAUGGAUCCACAUCUACGAAUUC…UUCACUGCAGACUUGACGAAGCUG
Procedure, shortened: (§1)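 Mutagenized RNA pools (0.43 μM; 21-nt variable region) were treated with 2–1250 μM of each biotinyl-aminoacyl-oxazolone. Conditions were 50 μL HEPES/NaCl/KCl/MgCl2/CaCl2 buffer, 5% acetonitrile, pH 6.9–7.0, room temperature, 90 minutes. Catalytic enhancement, the median kA relative to the uncatalyzed rate, was derived from streptavidin capture, qPCR and Illumina sequencing.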

biotinyl-Val-oxazolone = assay: self-aminoacylation, catalytic enhancement (BVO) (fold over background); higher = more active; k-Seq, kA / k0A0; sequences stand for … in GGGAAUGGAUCCACAUCUACGAAUUC…UUCACUGCAGACUUGACGAAGCUG
Procedure, shortened: as §1

biotinyl-Leu-oxazolone = assay: self-aminoacylation, catalytic enhancement (BLO) (fold over background); higher = more active; k-Seq, kA / k0A0; sequences stand for … in GGGAAUGGAUCCACAUCUACGAAUUC…UUCACUGCAGACUUGACGAAGCUG
Procedure, shortened: as §1

biotinyl-Phe-oxazolone = assay: self-aminoacylation, catalytic enhancement (BFO) (fold over background); higher = more active; k-Seq, kA / k0A0; sequences stand for … in GGGAAUGGAUCCACAUCUACGAAUUC…UUCACUGCAGACUUGACGAAGCUG
Procedure, shortened: as §1

biotinyl-Ile-oxazolone = assay: self-aminoacylation, catalytic enhancement (BIO) (fold over background); higher = more active; k-Seq, kA / k0A0; sequences stand for … in GGGAAUGGAUCCACAUCUACGAAUUC…UUCACUGCAGACUUGACGAAGCUG
Procedure, shortened: as §1

biotinyl-Met-oxazolone = assay: self-aminoacylation, catalytic enhancement (BMO) (fold over background); higher = more active; k-Seq, kA / k0A0; sequences stand for … in GGGAAUGGAUCCACAUCUACGAAUUC…UUCACUGCAGACUUGACGAAGCUG
Procedure, shortened: as §1

Row | Sequence | self-aminoacylation (biotinyl-Trp-oxazolone) | self-aminoacylation (biotinyl-Val-oxazolone) | self-aminoacylation (biotinyl-Leu-oxazolone) | self-aminoacylation (biotinyl-Phe-oxazolone) | self-aminoacylation (biotinyl-Ile-oxazolone) | self-aminoacylation (biotinyl-Met-oxazolone)
1 | AAAUUUGCUAAUAGUAGCAAG [Fam3.1 aminoacylation ribozyme variant] | 1.96 | 1.27 | 1.26 | 2.63 | 1.59 | 1.38
2 | AAAUUUGCUAAUAGUCACAAG [Fam3.1 aminoacylation ribozyme variant] | 1.71 | 1.49 | 1.26 | 2.81 | 1.58 | 1.62
3 | AAAUUUGCUAAUAGUCGCAAC [Fam3.1 aminoacylation ribozyme variant] | 1.52 | 1.51 | 1.91 | 1.64 | 1.88 | 1.31
4 | AAAUUUGCUAAUAGUCGCAUG [Fam3.1 aminoacylation ribozyme variant] | 3.67 | 1.8 | 2.81 | 2.04 | 2.28 | 2.13
5 | AAAUUUGCUACUAGUCGCAAG [Fam3.1 aminoacylation ribozyme variant] | 2.54 | 1.63 | 1.59 | 1.86 | 2.05 | 1.96
6 | AACGUUGCUAAUAGUCGCAAG [Fam3.1 aminoacylation ribozyme variant] | 1.97 | 1.68 | 1.66 | 2.3 | 1.64 | 1.81
7 | AACUUUACUAAUAGUCGCAAG [Fam3.1 aminoacylation ribozyme variant] | 2.92 | 1.86 | 2.26 | 6.76 | 2.07 | 2.23
8 | AACUUUCCUAAUAGUCGCAAG [Fam3.1 aminoacylation ribozyme variant] | 1.72 | 1.11 | 1.58 | 2.29 | 1.29 | 1.4
9 | AACUUUGAUAAUAGUCGCAAG [Fam3.1 aminoacylation ribozyme variant] | 1.55 | 1.42 | 1.91 | 2.61 | 1.71 | 1.66
10 | AACUUUGCAAAUAGUCGCAAG [Fam3.1 aminoacylation ribozyme variant] | 1.99 | 1.94 | 2.8 | 4.66 | 2.3 | 1.96
11 | AACUUUGCUAAGAGUCGCAAG [Fam3.1 aminoacylation ribozyme variant] | 5.02 | 2.62 | 4.13 | 12.8 | 2.78 | 3.93
12 | AACUUUGCUAAUAGUCCCAAG [Fam3.1 aminoacylation ribozyme variant] | 1.51 | 1.64 | 1.6 | 3.69 | 1.92 | 1.56
13 | AACUUUGCUAAUAGUCGCAAU [Fam3.1 aminoacylation ribozyme variant] | 2.77 | 2.51 | 3.35 | 6.33 | 2.94 | 2.79
14 | AACUUUGCUAAUAGUCGGAAG [Fam3.1 aminoacylation ribozyme variant] | 1.49 | 1.4 | 1.15 | 3.03 | 1.43 | 1.38
15 | AACUUUGCUAAUGGUCGCAAG [Fam3.1 aminoacylation ribozyme variant] | 3.24 | 2.43 | 2.64 | 9.47 | 2.47 | 2.44
16 | AACUUUGCUAAUUGUCGCAAG [Fam3.1 aminoacylation ribozyme variant] | 4.3 | 2.39 | 2.44 | 9.97 | 2.78 | 2.71
17 | AACUUUGCUACUAGUCGCAAG [Fam3.1 aminoacylation ribozyme variant] | 2.43 | 2.24 | 1.91 | 3.3 | 2.14 | 2.34
18 | AACUUUGCUAGUAGUCGCAAG [Fam3.1 aminoacylation ribozyme variant] | 3.53 | 2.67 | 2.9 | 3.31 | 2.68 | 2.63
19 | AACUUUUCUAAUAGUCGCAAG [Fam3.1 aminoacylation ribozyme variant] | 2.05 | 1.71 | 2.33 | 3.55 | 1.97 | 2.11
20 | AAGAUAGCUAAUAGUCGCAAG [Fam3.1 aminoacylation ribozyme variant] | 1.34 | 1.34 | 1.82 | 2.4 | 1.63 | 1.57
21 | AAGAUUGCAAAUAGUCGCAAG [Fam3.1 aminoacylation ribozyme variant] | 2.48 | 1.29 | 1.58 | 1.38 | 1.43 | 1.27
22 | AAGAUUGCCAAUAGUCGCAAG [Fam3.1 aminoacylation ribozyme variant] | 1.88 | 1.81 | 1.63 | 1.69 | 1.51 | 1.8
23 | AAGAUUGCUAAAAGUCGCAAG [Fam3.1 aminoacylation ribozyme variant] | 1.56 | 1.61 | 1.76 | 3.21 | 1.66 | 1.87
24 | AAGAUUGCUAAUAGUCGAAAG [Fam3.1 aminoacylation ribozyme variant] | 1.34 | 0.945 | 0.966 | 2.96 | 1.28 | 1.03
25 | AAGAUUGCUAAUAGUCGCAAG [Fam3.1 aminoacylation ribozyme variant] | 2.15 | 1.31 | 1.33 | 4.83 | 1.53 | 1.32
26 | AAGAUUGCUAAUAGUCGCAUG [Fam3.1 aminoacylation ribozyme variant] | 1.46 | 1.39 | 1.91 | 1.36 | 1.68 | 1.45

Row | Sequence | self-aminoacylation (biotinyl-Trp-oxazolone) | self-aminoacylation (biotinyl-Val-oxazolone) | self-aminoacylation (biotinyl-Leu-oxazolone) | self-aminoacylation (biotinyl-Phe-oxazolone) | self-aminoacylation (biotinyl-Ile-oxazolone) | self-aminoacylation (biotinyl-Met-oxazolone)
27 | AAGAUUGCUAAUAGUCGGAAG [Fam3.1 aminoacylation ribozyme variant] | 1.54 | 1.22 | 0.837 | 1.84 | 1.4 | 0.909
28 | AAGCUAGCUAAUAGUCGCAAG [Fam3.1 aminoacylation ribozyme variant] | 2.47 | 1.62 | 2.26 | 4.5 | 2.2 | 1.36
29 | AAGCUCGCUAAUAGUCGCAAG [Fam3.1 aminoacylation ribozyme variant] | 2.2 | 1.95 | 2.49 | 3.66 | 2.09 | 1.75
30 | AAGCUUGCUAAUAGUCGAAAG [Fam3.1 aminoacylation ribozyme variant] | 1.88 | 1.35 | 1.16 | 3.53 | 1.58 | 1.73
31 | AAGCUUGCUAAUAGUCGCAAC [Fam3.1 aminoacylation ribozyme variant] | 1.32 | 1.24 | 1.44 | 2.11 | 1.86 | 1.28
32 | AAGCUUGCUAAUAGUCGCAAG [Fam3.1 aminoacylation ribozyme variant] | 2.02 | 1.59 | 1.67 | 3.96 | 1.85 | 1.69
33 | AAGCUUGCUAAUCGUCGCAAG [Fam3.1 aminoacylation ribozyme variant] | 2.85 | 1.45 | 1.65 | 2.14 | 1.85 | 1.55
34 | AAGGUUGCUAAUAGUCGCUAG [Fam3.1 aminoacylation ribozyme variant] | 1.27 | 1.03 | 1.19 | 1.54 | 1.3 | 1.03
35 | AAGGUUGCUAAUAGUCGGAAG [Fam3.1 aminoacylation ribozyme variant] | 3.38 | 0.973 | 1.23 | 4.52 | 1.51 | 1.08
36 | AAGGUUGCUAAUUGUCGCAAG [Fam3.1 aminoacylation ribozyme variant] | 2.85 | 1.41 | 1.14 | 1.4 | 1.56 | 1.36
37 | AAGGUUGCUAGUAGUCGCAAG [Fam3.1 aminoacylation ribozyme variant] | 1.3 | 1.07 | 0.971 | 1.77 | 1.18 | 1.3
38 | AAGGUUUCUAAUAGUCGCAAG [Fam3.1 aminoacylation ribozyme variant] | 1.6 | 1.53 | 1.05 | 2.65 | 1.64 | 1.04
39 | AAGUAUGCCAAUAGUCGCAAG [Fam3.1 aminoacylation ribozyme variant] | 1.43 | 1.46 | 1.53 | 2.34 | 2.21 | 1.77
40 | AAGUAUGCUAAUAGCCGCAAG [Fam3.1 aminoacylation ribozyme variant] | 2.58 | 1.05 | 1.16 | 5.73 | 1.49 | 1.06
41 | AAGUAUGCUAAUAGUCUCAAG [Fam3.1 aminoacylation ribozyme variant] | 2.69 | 1.31 | 1.6 | 8.35 | 1.43 | 1.55
42 | AAGUAUGCUAUUAGUCGCAAG [Fam3.1 aminoacylation ribozyme variant] | 1.76 | 1.59 | 1.68 | 1.49 | 1.66 | 1.38
43 | AAGUAUUCUAAUAGUCGCAAG [Fam3.1 aminoacylation ribozyme variant] | 1.83 | 1.6 | 1.71 | 7.07 | 1.61 | 1.58
44 | AAGUCCGCUAAUAGUCGCAAG [Fam3.1 aminoacylation ribozyme variant] | 10.7 | 2.09 | 2.02 | 46.3 | 2.43 | 2.99
45 | AAGUCUGCUAAAAGUCGCAAG [Fam3.1 aminoacylation ribozyme variant] | 6.66 | 1.23 | 1.72 | 23.1 | 1.35 | 1.92
46 | AAGUCUGCUAAUAGUCCCAAG [Fam3.1 aminoacylation ribozyme variant] | 2.43 | 0.893 | 1.15 | 7.42 | 0.928 | 1.38
47 | AAGUCUGCUAAUAGUCGCAGG [Fam3.1 aminoacylation ribozyme variant] | 1.97 | 1.44 | 2.25 | 5.31 | 1.7 | 2.07
48 | AAGUCUGCUAAUAGUCGGAAG [Fam3.1 aminoacylation ribozyme variant] | 7.78 | 1.61 | 1.87 | 18.4 | 1.25 | 2.09
49 | AAGUCUGCUAAUAGUGGCAAG [Fam3.1 aminoacylation ribozyme variant] | 1.17 | 0.765 | 0.866 | 3.1 | 0.678 | 0.98
50 | AAGUCUGCUAGUAGUCGCAAG [Fam3.1 aminoacylation ribozyme variant] | 0.88 | 1.06 | 1.44 | 1.06 | 0.775 | 0.975
51 | AAGUCUGCUUAUAGUCGCAAG [Fam3.1 aminoacylation ribozyme variant] | 0.87 | 0.822 | 1.25 | 1.42 | 0.895 | 1.18
